Results on 18 sequences are retold here after the supplement of paper PMC9170038.

For series [1], the system named is MS2 coat protein. As to the kind of experiment: apparent KD of MS2 coat protein; designed switch direction (-1 OFF switch, 1 ON switch): 1; higher = weaker reporter binding. The note with it: Eterna round: R98. On the procedure: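 RNA-MaP: designed FMN/MS2 RNA switches (84 nt design region) are transcribed on-chip within common flanks and titrated with SNAP-549-labelled MS2 coat protein (about 1-3000 nM) in 100 mM Tris pH 7.5, 80 mM KCl, 4 mM MgCl2, without or with 200 uM FMN. Median apparent KD per design; activation ratio = KD,OFF / KD,ON.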

The test system of series [2] is MS2 coat protein. In words: apparent KD of MS2 coat protein, switch ON state; designed switch direction (-1 OFF switch, 1 ON switch): 1; higher = weaker reporter binding. The settings on record: FMN input: 0 or 200 uM; Eterna round: R93 (includes R88 designs). In short, it runs like this: (§1)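 Designed RNA switches were transcribed on-chip from Illumina sequencing clusters. SNAP-549-labelled MS2 coat protein was titrated onto them in twofold steps from 0.7 or 1.5 nM to 3 µM in 100 mM Tris-HCl pH 7.5, 80 mM KCl, 4 mM MgCl2, either without or with constant ligand. Apparent KD reflects the per-design median of normalised cluster binding-curve fits.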

The test system of series [3] is MS2 coat protein. As to the kind of experiment: apparent KD of MS2 coat protein, switch OFF state (with FMN for OFF switches, without FMN for ON switches); designed switch direction (-1 OFF switch, 1 ON switch): 1; higher = weaker reporter binding. The settings on record: FMN input: 0 or 200 uM; Eterna round: R93 (includes R88 designs). Summed up:
as §1

As for “AAUAAUCAGGUAGGAUAUGCUCAGGAAUACUGAGCAGAAGGACUAGAAACCUGAGGAUCACCCAGGUAACUGGACCGGAAACGG [Same State NG1 - A3C, U17G Submission 6C]”, the “apparent KD of MS2 coat protein” value was found to be 42.3 nM with MS2 coat protein [1] (input ligand: FMN 200 uM) and 81.1 nM in the series with MS2 coat protein [1] (input ligand: none).

“ACGUCCCGCAGAGGAUAUGUUGUUCGGCCUACAUGAGGAUCACCCAUGUCAAAGGGCUGAUCCCGACAGAAGGCUGAAGGAUAC [Qudiator]”: the “apparent KD of MS2 coat protein” value in the series with MS2 coat protein [1] (input ligand: FMN 200 uM) is 24.8 nM; in the series on MS2 coat protein [1] (input ligand: none), 57.5 nM.

On to “GAAAAACAUGAGGAUCACCCAUGUAGAAAUAUGGGAGGAUAUACUAAGACGAAAGUCGAUGUAGAAGGCCUAAAAG [Same State 1.4g (Mat - Mod of Eli - )]”, for which the “apparent KD of MS2 coat protein” value was found to be 21.6 nM in the series on MS2 coat protein [2] and 42.8 nM in the series on MS2 coat protein [3].

Consider “GAAAAACAUGAGGAUCACCCAUGUAGAGAUAUGGGAGGAUAUACGAAGACGAAAGACGAAGUAGAAGGCCUAAAAG [Garnet 58]”, for which the entries for the “apparent KD of MS2 coat protein” value in the series with MS2 coat protein [2] and in the series on MS2 coat protein [3] were 35.1 nM and 180 nM, respectively.

Take “GAAAAACAUGAGGAUCACCCAUGUGAGAAUAUGGGAGGAUAUACAAGGACGAGAGUCAAGGUAGAAGGCCUAAAAG [Mat - Same State 1 - Eli mod - 29]”: the “apparent KD of MS2 coat protein” value in the series with MS2 coat protein [2] amounted to 41.7 nM; in the series on MS2 coat protein [3], 247 nM.

Consider “GAAAAACAUGAGGAUCACCCAUGUGAUAACAUGGGAGGAUAUACGAGGACGAUAGUCAAGGUAGAAGGCCUAAAAG [Garnet 60]”, for which the “apparent KD of MS2 coat protein” value was 132 nM in the series on MS2 coat protein [2] and 24.6 nM in the series on MS2 coat protein [3].

As to “GAAAAACAUGAGGAUCACCCAUGUGUAAAUAUGGGAGGAUAUACGAAGACGUAAGUCAAAGUAGAAGGCCUAAAAG [Garnet 92]”, the “apparent KD of MS2 coat protein” value stood at 24.7 nM in the series on MS2 coat protein [2] and 119 nM in the series with MS2 coat protein [3].

For “GACCGACAUGAGGAUCACCCAUGUCGGAAAAGGCAAGGAUAUGGGCGGUACCAAUUUCGGUCAGAAGGUGCAAAAG [Aatisri]”, the “apparent KD of MS2 coat protein” value was 12.4 nM in the series with MS2 coat protein [2] and 14.6 nM with MS2 coat protein [3].

On to “GAGGACCUAGGAUAGGAUAUAUGAAUAAUUACAUGAGGAUCACCCAUGUCCAUUUAUAUGGGAACAUAGAAGGGUUCUGGUUAUC [SameState2 Malc#37]”, for which the “apparent KD of MS2 coat protein” value with MS2 coat protein [2] turned out to be 36.9 nM; in the series with MS2 coat protein [3] it was 60.6 nM.

For the sequence “GAGUACAUAGUACAGGAUAUAUGAAUAGUUACAUGAGGAUCACCCAUGUGCAUUUAUAUGCGCACAUAGAAGGGUGGUAGGUAUC [Mat - Same state - Malcolm Mod - D127]”, the “apparent KD of MS2 coat protein” value in the series on MS2 coat protein [2] was 38.8 nM; in the series on MS2 coat protein [3], 29.4 nM.

Regarding “GCAAAACAUGAGGAUCACCCAUGUCAACAAAAUCAAGGAUAUGAGCCGGCAUUGCCGGCAUCAGAAGGUGAACCUU [Gemaisinve]”, the entries for the “apparent KD of MS2 coat protein” value in the series on MS2 coat protein [2] and in the series on MS2 coat protein [3] were 96.1 nM and 129 nM, respectively.

For the sequence “GGAAAGGAGAGAGAGGAUAUCCAAAGGAAAACAUGAGGAUCACCCAUGUAGAAGGUAGGAAAUUGGGAGAAGGCUCAAGAAAGAG [salish99-ss2-138]”, the “apparent KD of MS2 coat protein” value in the series on MS2 coat protein [2] came to 21 nM; with MS2 coat protein [3], 57.2 nM.

Regarding “GGAAAUAAAAGAGAGGAUAUCCAAAGGAAAACAUGAGGAUCACCCAUGUAAAAGGAAGGAAAGUGGGAGAAGGCUCAAAAUAAGG [salish99-ss2-008]”, the “apparent KD of MS2 coat protein” value is 29.6 nM in the series with MS2 coat protein [2] and 49.9 nM with MS2 coat protein [3].

Take “GGAAGACAUGAGGAUCACCCAUGUGGGAUUAUGGGAGGAUAUACAAAGACGAGAGUCAGAGUAGAAGGCCUAGGAA [salish99-ss1-120(!)]”: the “apparent KD of MS2 coat protein” value was 28.6 nM in the series on MS2 coat protein [2] and 79.1 nM with MS2 coat protein [3].

As to “GGAGAACAUGAGGAUCACCCAUGUCGGAGAAGGCGAGGAUAUCGAAGGAGGAAGGAAGGACGAGAAGGCGCGGCAG [salish99-SS1-01]”, the entries for the “apparent KD of MS2 coat protein” value with MS2 coat protein [2] and with MS2 coat protein [3] were 15.9 nM and 21.4 nM, respectively.

As for “GGCAAACAUGAGGAUCACCCAUGUCAGUGCUAUCAAGGAUAUGGGAUGACGGAAGGUCGGCCAGAAGGUGAGAAAG [Quededma]”, the “apparent KD of MS2 coat protein” value stood at 233 nM in the series on MS2 coat protein [2] and 406 nM in the series with MS2 coat protein [3].

Consider “GGCUGCAAUUAUGAGGAUAUGUUUGGAUGAACAUGAGGAUCACCCAUGUGGCGAUAGCCGUCUAUGCAGAAGGUGUAGUGGCGGC [Ertion]”, for which the “apparent KD of MS2 coat protein” value with MS2 coat protein [2] was found to be 25.9 nM; in the series with MS2 coat protein [3], 59.1 nM.

As for “GGGAGACAUGAGGAUCACCCAUGUGAGAAGAGGCGAGGAUAUCGAAAGAAAGAAGAGAAACGAGAAGGCGCGAGGU [salish99-SS1-055]”, the results for the “apparent KD of MS2 coat protein” value with MS2 coat protein [2] and in the series with MS2 coat protein [3] were 39.8 nM and 72.3 nM, respectively.
